According to US20260232828A1, “LIGAND-CYTOTOXICITY DRUG CONJUGATES AND PHARMACEUTICAL USES THEREOF” (HANSOH BIO LLC, priority 2023, published 2026):

Tests used:
[1] = molecular target: human CDH17 His Tag (Sino biological, catalog number 11360-H08H) (human) (UniProt Q12864); assay: Octet BLI, antibody on AHC biosensor, antigen in solution
[2] = molecular target: human CDH17 as originally expressed in cells (cell surface CDH17 on AsPC1, GP2d and other cancer cell lines) (human) (UniProt Q12864); assay: flow cytometry competition on AsPC1 cells: unlabelled HBMAB81 0.03-1800 nM against 0.97 nM HBMAB81-AF647, MFI
[3] = molecular target: human CDH17 as originally expressed in cells (cell surface CDH17 on AsPC1, GP2d and other cancer cell lines) (human) (UniProt Q12864); assay: flow cytometry, labelled antibody on AsPC1 cells
[4] = molecular target: T1, human CDH6-His tag (Acro Biosystems, catalog number CA6-H5229) (human, UniProt P55285 54-615); assay: Octet BLI, antibody on AHC biosensor, antigen 200 nM to 3.1 nM
T1 construct: Bought recombinant protein; also called hCDH6; not shown: His tag
T1 sequence (looked up): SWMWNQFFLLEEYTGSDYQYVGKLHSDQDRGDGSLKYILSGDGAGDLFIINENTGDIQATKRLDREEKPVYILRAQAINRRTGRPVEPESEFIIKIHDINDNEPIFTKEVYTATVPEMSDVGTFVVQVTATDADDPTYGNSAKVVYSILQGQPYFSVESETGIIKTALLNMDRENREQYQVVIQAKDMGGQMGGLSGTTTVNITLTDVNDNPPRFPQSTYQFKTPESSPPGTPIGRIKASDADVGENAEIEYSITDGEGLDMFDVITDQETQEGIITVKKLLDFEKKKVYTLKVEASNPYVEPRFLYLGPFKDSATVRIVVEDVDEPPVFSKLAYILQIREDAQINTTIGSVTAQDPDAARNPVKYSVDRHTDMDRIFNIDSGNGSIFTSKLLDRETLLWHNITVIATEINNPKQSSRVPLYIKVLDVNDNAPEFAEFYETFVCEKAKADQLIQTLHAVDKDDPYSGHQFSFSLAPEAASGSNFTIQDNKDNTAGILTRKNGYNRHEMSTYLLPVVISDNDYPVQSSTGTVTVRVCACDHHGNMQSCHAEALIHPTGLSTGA
Protocol: (§1) The affinity between CDH17 antibodies and CDH17 antigens and homologues was determined by Octet (Octet Red 384) instrument. Anti-hIgG Fc Capture (AHC) Biosensors were selected, and the sensors were balanced with buffer solution for 10 min. Subsequently, sensors were dipped into the wells containing 1 μg/ml of CDH17 lead antibodies to load onto the probes. The excess unbound antibodies were washed off. The antigen binding was performed in the wells containing serially diluted human CDH17-His tag (Sino biological, catalog number 11360-H08H), cynomolgus CDH17-His tag (Acro Biosystems, catalog number CA7-C52H4), homologs human CDH6-His tag (Acro Biosystems, catalog number CA6-H5229) and human CDH16-His tag (Sino biological, catalog number 10915-H08H), with concentration ranging from 200 nM to 3.1 nM, for 5 min. Then probes were dipped into wells containing renewed buffer to initiate the dissociation for another 15 min.

[5] = molecular target: T2, human CDH16-His tag (Sino biological, catalog number 10915-H08H) (human, UniProt O75309 19-786); assay: as above
T2 construct: Bought recombinant protein; also called hCDH16; not shown: His tag
T2 sequence (looked up): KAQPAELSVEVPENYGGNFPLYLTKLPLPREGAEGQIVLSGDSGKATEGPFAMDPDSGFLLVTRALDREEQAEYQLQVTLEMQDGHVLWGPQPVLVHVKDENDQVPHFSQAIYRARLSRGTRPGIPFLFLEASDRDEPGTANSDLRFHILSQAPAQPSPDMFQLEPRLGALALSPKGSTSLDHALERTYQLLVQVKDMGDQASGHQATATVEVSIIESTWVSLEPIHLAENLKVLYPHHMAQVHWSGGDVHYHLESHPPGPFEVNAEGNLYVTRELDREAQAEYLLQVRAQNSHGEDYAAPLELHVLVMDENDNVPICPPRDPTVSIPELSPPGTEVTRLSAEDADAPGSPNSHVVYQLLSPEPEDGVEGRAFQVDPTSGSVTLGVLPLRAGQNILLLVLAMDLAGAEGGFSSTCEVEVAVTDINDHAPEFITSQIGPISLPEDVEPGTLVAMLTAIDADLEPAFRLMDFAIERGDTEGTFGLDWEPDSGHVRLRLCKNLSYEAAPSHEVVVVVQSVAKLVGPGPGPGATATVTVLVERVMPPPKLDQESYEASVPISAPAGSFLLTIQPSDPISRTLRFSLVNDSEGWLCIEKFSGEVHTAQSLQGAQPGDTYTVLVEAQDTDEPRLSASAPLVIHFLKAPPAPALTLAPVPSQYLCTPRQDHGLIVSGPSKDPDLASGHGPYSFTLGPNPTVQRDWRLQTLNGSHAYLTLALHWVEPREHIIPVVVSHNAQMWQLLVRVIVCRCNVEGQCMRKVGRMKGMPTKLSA
Protocol: as §1

[6] = molecular target: cynomolgus CDH17-His tag (Acro Biosystems, catalog number CA7-C52H4) (cynomolgus); assay: Octet BLI, antibody on AHC biosensor, antigen in solution
[7] = molecular target: T3, human CDH17 as originally expressed in cells (cell surface CDH17 on AsPC1, GP2d and other cancer cell lines) (human, UniProt Q12864 23-832); assay: flow cytometry titration on CDH17 positive AsPC1 cells
T3 construct: whole, on cells; Endogenous CDH17 on human cancer cell lines; AsPC1 and GP2d are named CDH17 positive; also called CDH17 positive AsPC1 cells; GP2d cells
Protocol: (§2) To determine the binding of recombinant antibody to cell surface CDH17 receptors, cells were first harvested and resuspended in cell staining buffer (BioLegend, Cat #420201) at 1.3-1.5×10⁶ cells/mL. Then, the cells were treated with human Fc receptor blocking reagent (BioLegend, Cat #422302) on the ice for 10 min. The resulting cell suspension was aliquoted into 50 μL aliquots. […] The cells were incubated on the ice for 1 hour and then washed with cell staining buffer twice. 50 μL of secondary antibody (PE conjugated goat anti-human Fc, eBioscience™, 1:250 dilution) was added to each sample to resuspend the cells. The cells were incubated on the ice for another 20 min. Cells were subsequently washed twice with cell staining buffer and resuspended in 4% PFA to fix the cells. The samples were analyzed using iQue3 to measure the median fluorescence intensity using corresponding channels.

[8] = molecular target: T3, human CDH17 as originally expressed in …; assay: cell-based or functional assay
[9] = molecular target: T4, human CDH17 His Tag (Sino biological, catalog number 11360-H08H) (human, UniProt Q12864 23-787); assay: Octet BLI, antibody on AHC biosensor, antigen in solution
T4 construct: Bought recombinant protein; also called hCDH17; human CDH17 protein; not shown: His tag
Protocol: as §1

[10] = molecular target: T3, human CDH17 as originally expressed in …; assay: flow cytometry titration of recombinant human IgG1 on CDH17-positive AsPC1 cells, 0.001-200 nM, PE anti-human Fc, MFI
Protocol: as §2

For “HBMAB-81, reformatted mAb with the CDH17 binding arm from bispecific antibody BI 905771 and human IgG1 backbone”, the Kd [1] was 4 nM, the koff [1] was 0.00136 s⁻¹ and the kon [1] was 340000 M⁻¹ s⁻¹. For the same molecule, the IC50 (read off the curve) [2] was 0.3 nM.

“HBMAB81-AF647 (HBMAB81 mAb labeled with Alexa Flour 647) (antibody)” was tested, and the EC80 [3] was 0.97 nM.

B1: 10E11 anti-CDH17 recombinant antibody (human IgG1) (antibody, V domains shown)
VH: EVQLVQSGTEVKKPGESLKISCKDSGYRFSSYWIGWVRQMPGKGLEWMGIIYPGDSDTRYSPSFQGQVTISADKSISTAYLQWRSLKASDTAMYYCARRGWVNYFDYWGQGTLVTVSS
VL: DIQMTQSPSSVSASVGDRVTITCRASQGISNWLGWYQQKPGKAPKLLIYAASSLQSGVPSRFSGSGSGTDFTLTISSLQPEDFATYYCQQANSFPLTFGGGTKVEIKR
In the case of B1, the binding result [4] is reported as “no binding (tested: 200 nM)”, the binding result [5] is reported as “no binding (tested: 200 nM)” and the Kd [6] is reported as 15 nM. The koff [6] was 0.0012 s⁻¹, the kon [6] was 80000 M⁻¹ s⁻¹ and the Kd [7] was 0.1 nM. The “IC50 of indirect killing assay to evaluate the internalization in AsPC1 cells” value (shortened to “IC50 of indirect killing assay”) [8] was 0.08 nM, the Kd [9] was 14.2 nM and the koff [9] was 0.00138 s⁻¹. For the same molecule, the kon [9] was 97500 M⁻¹ s⁻¹.

B2: 14B12 anti-CDH17 recombinant antibody (human IgG1) (antibody, V domains shown)
VH: QVQLQESGPGLVKPSETLSLTCTVSGGSINTYYRSWIRQPPGKGLEWIGYIYYSGNTNYNPSLKSRVTISADTSKNQFSLNLISVTAADTAMYYCARAQYGEEAFDIWGQGTLVTVSS
VL: DIQMTQSPSSLSASVGDRVTITCRASQSITTYLNWYQQKPGKAPQLLIFAASRLQTGVPSRFSGSGSGTDFTLTISSLLPGDFATYYCQQSYNTPPTFGGGTKVEIKR
For B2, the binding result [4] was “no binding (tested: 200 nM)”, the binding result [5] was “no binding (tested: 200 nM)” and the Kd [6] was 2.5 nM. It also gave a koff [6] of 0.00016 s⁻¹, a kon [6] of 620000 M⁻¹ s⁻¹ and a Kd [7] of 0.07 nM. For the same molecule, the “IC50 of indirect killing assay” value [8] was 0.09 nM, the Kd [9] was 2.2 nM and the koff [9] was 0.000507 s⁻¹. For the same molecule, the kon [9] was 230000 M⁻¹ s⁻¹.

B3: 4F9 anti-CDH17 recombinant antibody (human IgG1) (antibody, V domains shown)
VH: QVQLQESGPGLVKPSGTLSLTCAVSGGSISSSNWWSWVRQPPGKGLEWIGEIYHSGSTSYNPSLKSRVTISVDKSKNQFSLKLSSVTAADTAVYYCARNDWGFPLDCWGQGTLVTVSS
VL: DIQMTQSPSSLSASVGDRVTITCRASQSISSYLNWYQQKPGKAPKLLIYAASSLQSGVPSRFSGSGSGTHFTLTISSLQPEDFATYYCQQSHNIPITFGQGTRLEIKR
In the case of B3, the “EC50 (read off the curve)” value [10] is reported as roughly 2 nM, the Kd [7] is reported as 1.69 nM and the “IC50 of indirect killing assay” value [8] is reported as 0.29 nM.

B4: 15A4 anti-CDH17 recombinant antibody (human IgG1) (antibody, V domains shown)
VH: QVQLVESGGGVVQPGRSLRLSCAASGFNFSSYGMHWVRQAPGKGLEWVAFVWYDGSNQNYADSVKGRFTISRDNSNNTLYLQMNSLRAEDTAVYYCARDRYSSGWDVFDYWGQGTLVTVSS
VL: DIQMTQSPSSVSASVGDRVTITCRASQGISSWLAWYQQKPGKAPKLLIFAASSLQSGVPSRFSGSGSGTGFTLTISSLQPEDFATYYCQQAKSFPPTFGQGTKVEIKR
B4 was tested, and the “EC50 (read off the curve)” value [10] was roughly 3 nM, the Kd [7] was 2.32 nM and the “IC50 of indirect killing assay” value [8] was 1.99 nM.
